Reference: the Human Domainome abundance scans (Beltran et al. 2025)

B1: GAS2-like protein 1, residues 209 to 276; numbered along this chain, Q99501 (parent)
chain: DELVREILGRCTCPDQFPMIKVSEGKYRVGDSSLLIFVRVLRSHVMVRVGGGWDTLEHYLDKHDPCRC

Variants of: B1
Assay: abundance fitness (aPCA) (normalised: wild type 0, dead -1); higher = more abundant; growth selection in yeast, the domain comes from the species named
Details: Homo sapiens

Abundance fitness: each site, then its substitutions
V47: W -0.761 | R -0.979 | P -0.888 | E -0.99 | C -0.175 | Y -0.386 | N -1.01 | A -0.429 | K -0.694 | S -1.08 | M -0.565 | G -0.851 | D -0.997 | Q -1.08 | L -0.595 | T -0.783 | F -0.921
S33: A -0.019 | R -0.043 | F -0.549 | H 0.014 | L -0.194 | Q 0.051 | V -0.647 | W -0.637 | K 0.028 | E 0.113 | M -0.074 | I -0.856 | N 0.113 | Y -0.413 | C -0.115 | T -0.182 | D 0.039 | P 0.01
M46: A -0.596 | S -0.642 | E -0.455 | T -0.299 | K -0.601 | Q -0.093 | Y 0.109 | H -0.332 | D -0.931 | I -0.186 | C -0.24 | P -0.476 | V -0.322 | G -0.666 | L -0.056 | R -0.541
L35: E 0.099 | G -0.383 | Q -0.171 | N 0.097 | C -0.013 | M -0.025 | V -0.041 | D -0.003 | F -0.187 | A -0.111 | H -0.247 | I 0.069 | K -0.227 | Y -0.022 | T 0.072 | W -0.64 | R -0.195
H44: R 0.142 | A -0.001 | T 0.074 | L -0.341 | D -0.004 | Y -0.515 | Q 0.103 | N -0.376 | E 0.222 | G 0.064 | P -0.731 | C -0.182 | K 0.007 | M 0.131 | S 0.099 | F -0.532
L34: T 0.05 | Y -0.015 | V 0.103 | A 0.191 | R -0.312 | W -0.085 | C 0.129 | H 0.112 | E 0.316 | D 0.379 | I 0.102 | F -0.124 | Q 0.238 | M 0.131 | G 0.135 | S 0.154 | N 0.094
R48: Q -0.133 | C -0.224 | P -0.539 | N 0.087 | S 0.039 | F -0.404 | T -0.628 | M -0.225 | D -0.256 | L -0.495 | A -0.446 | Y -0.166 | I -0.542 | V -0.784 | H -0.102 | E -0.191 | W -0.366 | G -0.236 | K 0.142
L41: M 0.098 | E 0.143 | H 0.175 | D 0.011 | Q 0.13 | C -0.09 | Y 0.086 | W 0.032 | I 0.148 | G -0.293 | K -0.171 | S -0.013 | A -0.148 | R 0.042 | N -0.068 | P -0.86 | V 0.149 | F -0.143
D31: T 0.059 | Q 0.048 | V -0.146 | K -0.162 | M -0.148 | Y -0.181 | S -0.07 | G -0.066 | L -0.141 | N 0.084 | R -0.087 | P -0.066 | E 0.007 | F -0.303 | W -0.153 | I -0.144 | C -0.146 | H 0.039 | A -0.06
V45: H -0.693 | C -0.227 | M -0.505 | L -0.328 | A -0.141 | F -0.927 | R -0.847 | S -0.937 | I -0.076 | W -0.804
